Consider 21 molecules from US20250011410A1 (INVETX, published 2025).

Changes are numbered by the printed parent chain. Names and notes keep the numbering of the source. Values joined by “and” are separate entries in the source; they are usually repeats but may differ in a detail not shown here. Equal entries are not always repeated.

This test concerns the target T1, canine NGF tagged at the C-terminus with the Flag tag (canine, UniProt A0A8I3PYI3 122-241).
T1 construct: mature; Expressed with baculovirus technology; also called feline NGF (processed form identical)
The experiment in a line: SPR off-rate screen, Fab-SASA on BSA chip.

T1 sequence (A0A8I3PYI3 entry or part of it): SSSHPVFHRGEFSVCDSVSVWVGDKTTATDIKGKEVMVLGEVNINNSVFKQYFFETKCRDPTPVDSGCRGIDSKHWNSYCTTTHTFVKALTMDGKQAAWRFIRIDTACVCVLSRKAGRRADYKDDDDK

B1: felinized clone 101 Fab-SASA variant D104E (VH) (Fab, V domains shown, not shown: small tags and cut ends)
VH: DVQLVESGGDLVKPGGSLRLTCVASGLSLTSSSMSWVRQAPGKGLQWVSTIYSNGGTYYTDSVKGRFTISKDNAENTLYLQMNNLKTEDTATYYCASIYYYDAEYLHWYFDFWGQGALVTVSS
VL: EIQMTQSPTSLSASVGDRVTITCRASEGISNNLSWYQQTPGKAPKLLIYATSNLHSGVPSRFSGSGSGTDFTLTISSLQPEDFATYYCQQGYKWPLTFGGGTKLEITR
With B1, the Kd was found to be 1.8 nM, the “Ratio WT-kd/clone-kd” value was found to be 2.21, the koff came out at 0.000426 s⁻¹ and the kon was 237000 M⁻¹ s⁻¹.

B2: felinized clone 101 Fab-SASA variant D104K (VH) (Fab, V domains shown, not shown: small tags and cut ends)
VH: B1 VH with E104K
VL: B1 VL
On to B2, for which the affinity, expressed as Kd, was 5.45 nM; the “Ratio WT-kd/clone-kd” value turned out to be 2.84; the koff is 0.000332 s⁻¹; the kon was 60900 M⁻¹ s⁻¹.

B3: felinized clone 101 Fab-SASA variant N31Q (VL) (Fab, V domains shown, not shown: small tags and cut ends)
VH: B1 VH with E104D
VL: B1 VL with N31Q
Turning to B3, the affinity, expressed as Kd, was 1.47 nM; the “Ratio WT-kd/clone-kd” value is 1.96; the koff is 0.00048 s⁻¹; the kon was found to be 327000 M⁻¹ s⁻¹.

B4: felinized clone 101 Fab-SASA variant L54H (VL) (Fab, V domains shown, not shown: small tags and cut ends)
VH: B1 VH with E104D
VL: B1 VL with L54H
On to B4, for which the Kd was found to be 1.65 nM, the “Ratio WT-kd/clone-kd” value is 1.68, the koff came to 0.00056 s⁻¹ and the kon was 340000 M⁻¹ s⁻¹.

B5: felinized clone 101 Fab-SASA variant G55R (VH) (Fab, V domains shown, not shown: small tags and cut ends)
VH: B1 VH with G55R, E104D
VL: B1 VL
Regarding B5, the Kd was 1.23 nM, the “Ratio WT-kd/clone-kd” value amounted to 6.41, the koff came out at 0.000147 s⁻¹ and the kon was 120000 M⁻¹ s⁻¹.

B6: felinized clone 101 Fab-SASA variant N53L (VL) (Fab, V domains shown, not shown: small tags and cut ends)
VH: B1 VH with E104D
VL: B1 VL with N53L
For the molecule B6, the equilibrium dissociation constant (Kd) was found to be 2.08 nM, the “Ratio WT-kd/clone-kd” value stood at 1.41, the koff was 0.000667 s⁻¹ and the kon is 321000 M⁻¹ s⁻¹.

B7: felinized clone 101 Fab-SASA variant N53K (VL) (Fab, V domains shown, not shown: small tags and cut ends)
VH: B1 VH with E104D
VL: B1 VL with N53K
In the case of B7, binding was put at a Kd of 2.04 nM, the “Ratio WT-kd/clone-kd” value was found to be 1.58, the koff worked out at 0.000596 s⁻¹ and the association rate constant (kon) was 292000 M⁻¹ s⁻¹.

B8: felinized clone 101 Fab-SASA variant F112N (VH) (Fab, V domains shown, not shown: small tags and cut ends)
VH: B1 VH with E104D, F112N
VL: B1 VL
Consider B8, for which binding was put at a Kd of 1.85 nM, the “Ratio WT-kd/clone-kd” value came out at 1.47, the koff stood at 0.000643 s⁻¹ and the kon came to 347000 M⁻¹ s⁻¹.

B9: felinized clone 101 Fab-SASA variant F112E (VH) (Fab, V domains shown, not shown: small tags and cut ends)
VH: B1 VH with E104D, F112E
VL: B1 VL
Consider B9, for which the Kd is 1.41 nM and 2.41 nM; the koff was 0.000399 s⁻¹ and 0.000708 s⁻¹; the kon is 284000 M⁻¹ s⁻¹ and 294000 M⁻¹ s⁻¹.

B10: felinized clone 101 Fab-SASA variant N53H (VL) (Fab, V domains shown, not shown: small tags and cut ends)
VH: B1 VH with E104D
VL: B1 VL with N53H
B10: the Kd amounted to 1.95 nM, the “Ratio WT-kd/clone-kd” value amounted to 1.5, the koff turned out to be 0.000627 s⁻¹ and the kon came out at 322000 M⁻¹ s⁻¹.

B11: felinized clone 101 Fab-SASA variant D104N (VH) (Fab, V domains shown, not shown: small tags and cut ends)
VH: B1 VH with E104N
VL: B1 VL
As for B11, binding was put at a Kd of 1.87 nM, the “Ratio WT-kd/clone-kd” value is 2.11, the koff stood at 0.000446 s⁻¹ and the kon was 239000 M⁻¹ s⁻¹.

B12: felinized clone 101 Fab-SASA variant H55I (VL) (Fab, V domains shown, not shown: small tags and cut ends)
VH: B1 VH with E104D
VL: B1 VL with H55I
In the case of B12, the dissociation constant Kd turned out to be 1.31 nM, the “Ratio WT-kd/clone-kd” value turned out to be 2.16, the koff is 0.000436 s⁻¹ and the on-rate constant (kon) is 334000 M⁻¹ s⁻¹.

B13: felinized clone 101 Fab-SASA variant K64D (VH) (Fab, V domains shown, not shown: small tags and cut ends)
VH: B1 VH with K64D, E104D
VL: B1 VL
Take B13: binding was characterised by a dissociation constant (Kd) of 1.63 nM, the “Ratio WT-kd/clone-kd” value came to 1.7, the koff was found to be 0.000554 s⁻¹ and the kon came out at 340000 M⁻¹ s⁻¹.

B14: felinized clone 101 Fab-SASA variant D104Q (VH) (Fab, V domains shown, not shown: small tags and cut ends)
VH: B1 VH with E104Q
VL: B1 VL
As for B14, the Kd was 2.17 nM, the “Ratio WT-kd/clone-kd” value is 1.97, the koff worked out at 0.000478 s⁻¹ and the on-rate constant (kon) came out at 220000 M⁻¹ s⁻¹.

B15: felinized clone 101 Fab-SASA variant G55Y (VH) (Fab, V domains shown, not shown: small tags and cut ends)
VH: B1 VH with G55Y, E104D
VL: B1 VL
As to B15, binding was characterised by a dissociation constant (Kd) of 1.83 nM, the “Ratio WT-kd/clone-kd” value was found to be 2.25, the koff was 0.000419 s⁻¹ and the kon worked out at 229000 M⁻¹ s⁻¹.

B16: felinized clone 101 Fab-SASA variant F112H (VH) (Fab, V domains shown, not shown: small tags and cut ends)
VH: B1 VH with E104D, F112H
VL: B1 VL
With B16, the Kd came to 1.95 nM, the “Ratio WT-kd/clone-kd” value was determined as 1.48, the koff was 0.000639 s⁻¹ and the kon is 328000 M⁻¹ s⁻¹.

B17: felinized clone 101 Fab-SASA variant H55M (VL) (Fab, V domains shown, not shown: small tags and cut ends)
VH: B1 VH with E104D
VL: B1 VL with H55M
For the molecule B17, the Kd worked out at 0.935 nM, the “Ratio WT-kd/clone-kd” value stood at 3.02, the koff came out at 0.000312 s⁻¹ and the kon turned out to be 333000 M⁻¹ s⁻¹.

B18: felinized clone 101 Fab-SASA variant N53I (VL) (Fab, V domains shown, not shown: small tags and cut ends)
VH: B1 VH with E104D
VL: B1 VL with N53I
B18: the Kd turned out to be 1.41 nM, the “Ratio WT-kd/clone-kd” value was 2.42, the koff worked out at 0.000389 s⁻¹ and the kon is 276000 M⁻¹ s⁻¹.

B19: felinized clone 101 Fab-SASA variant K64E (VH) (Fab, V domains shown, not shown: small tags and cut ends)
VH: B1 VH with K64E, E104D
VL: B1 VL
B19: the Kd stood at 2.42 nM, the “Ratio WT-kd/clone-kd” value amounted to 1.98, the koff was determined as 0.000476 s⁻¹ and the kon came out at 196000 M⁻¹ s⁻¹.

B20: felinized clone 101 Fab-SASA variant H55L (VL) (Fab, V domains shown, not shown: small tags and cut ends)
VH: B1 VH with E104D
VL: B1 VL with H55L
Turning to B20, the Kd was 1.58 nM, the “Ratio WT-kd/clone-kd” value was 2.26, the koff came out at 0.000418 s⁻¹ and the kon was 264000 M⁻¹ s⁻¹.

B21: felinized clone 101 Fab-SASA variant F112P (VH) (Fab, V domains shown, not shown: small tags and cut ends)
VH: B1 VH with E104D, F112P
VL: B1 VL
Take B21: binding was put at a Kd of 1.39 nM, the “Ratio WT-kd/clone-kd” value came out at 1.71, the off-rate constant (koff) worked out at 0.000552 s⁻¹ and the kon came to 398000 M⁻¹ s⁻¹.
